Measured values reported in patent US20260209325A1 (SCHOLAR ROCK, published 2026).
Positions count from the first letter of the chain named.

B1: Ab116 (antibody, human IgG4 S228P, kappa, V domains shown)
VH: QVQLVQSGAEVKKPGASVKVSCKVSGFTFSRPAIHWVRQAPGKGLEWMGGINPNAATTIYAQKFQGRVTMTEDTSTDTAYMELSSLKSEDTAVYYCARGRLLREWELRPYDTWGQGTLVTVSS
VL: DIQMTQSPSSVSASVGDRVTITCRASQSIGKSLAWYQQKPGKAPKLLIYSASNLRSGVPSRFSGSGSGTDFTLTISSLQPEDFANYYCQQYRDVPPITFGGGTKVEIKR
B2: Ab117 (antibody, human IgG4 S228P, kappa, V domains shown)
VH: QVQLVQSGAEVKKPGASVKVSCKVSGGTFSSHDIHWVRQAPGKGLEWMGGINPSDASTIYAQKFQGRVTMTEDTSTDTAYMELSSLKSEDTAVYYCARDLRGYSYGAETWHFQHWGQGTLVTVSS
VL: DIQMTQSPSSVSASVGDRVTITCRASQYISNYLAWYQQKPGKAPKLLIYETSRLESGVPSRFSGSGSGTDFTLTISSLQPEDFANYYCQQTSSTPLTFGGGTKVEIKR
B3: Ab120 (antibody, human IgG4 S228P, kappa, V domains shown)
VH: QVQLVQSGAEVKKPGASVKVSCKVSGGTFSTFHIHWVRQAPGKGLEWMGGISAYSGSTIYAQKFQGRVTMTEDTSTDTAYMELSSLKSEDTAVYYCARARYVDDAFDIWGQGTMVTVSS
VL: DIQMTQSPSSVSASVGDRVTITCRASEDISNFLAWYQQKPGKAPKLLIYAASDLLSGVPSRFSGSGSGTDFTLTISSLQPEDFANYYCQKYISAPSFGGGTKVEIKR
B4: Ab119 (antibody, human IgG4 S228P, kappa, V domains shown)
VH: QVQLVQSGAEVKKPGASVKVSCKVSGYTFTKDHIHWVRQAPGKGLEWMGGITPSSGDTIYAQKFQGRVTMTEDTSTDTAYMELSSLKSEDTAVYYCARDHMVRGLPNYYYGMDLWGQGTTVTVSS
VL: DIQMTQSPSSVSASVGDRVTITCRASRDIANYLAWYQQKPGKAPKLLIYAASILQNGVPSRFSGSGSGTDFTLTISSLQPEDFANYYCQQAYTTPPTFGGGTKVEIKR
B5: Ab125 (antibody, human IgG4 S228P, kappa, V domains shown)
VH: EVQLVQSGAEVKKPGESLKISCKGSGNRISDYWMNWVRQVPGKGLEWMGNIYPGYSDATYNRKFKGQVTISADKSISTAYLQWSSLKASDTAIYYCARGRDGYNYFAAFDIWGQGTMVTVSS
VL: EIVLTQSPATLSLSPGERATLSCRASQSVASSYLAWYQQKPGQAPRLLIYDTSSRAAGIPARFSGSGSGTDFTLTISSLEPEDFAVYYCHQYGSSLTTFGGGTKVEIKR
B6: Ab133 (antibody, human IgG4 S228P, kappa, V domains shown)
VH: EVQLVESGGGLVQPGGSLRLSCAASGFTFSSYGMSWVRQAPGKGLELVASFTGSGGAYYPDSVKGRFTISRDNAKNSLYLQMNSLRAEDTAVYYCARDLLIRFLEWSHYYGMDVWGQGTTVTVSS
VL: DIVMTQSPLSLPVTPGEPASISCRSSQSLLHSSGHNFLHWYLQKPGQSPQLLIYEVSNRVSGVPDRFSGSGSGTDFTLKISRVEAEDVGVYYCQQQTQYPGTFGGGTKVEIKR
notes: human IgG4 in the EM experiment; also called Ab133 Human IgG4
B7: Ab130 (antibody, human IgG4 S228P, kappa, V domains shown)
VH: EVQLVESGGGLVQPGGSLRLSCAASGFTFTSYGMSWVRQAPGKGLELVASITGSGGETYYPDSVKGRFTISRDNAKNSLYLQMNSLRAEDTAVYYCARDLLVRFLEWSHYYGMDVWGQGTTVTVSS
VL: B6 VL with V56T, V60A, S61P, V63I, Q96A, Y99F, G101R, T102P
B8: Ab105 (antibody, human IgG4 S228P, kappa, V domains shown)
VH: B6 VH with F27S, T28A, F51I, T52G, S54T, G56A, A57T, I101V, S107G
VL: DIVMTQSPLSLPVTPGEPASISCRSSQSLLHSSGYNFLHWYLQKPGQSPQLLIYAASSRAPGIPDRFSGSGSGTDFTLKISRVEAEDVGVYYCMHGGQGPTFGGGTKVEIKR
B9: Ab131 (antibody, human IgG4 S228P, kappa, V domains shown)
VH: B6 VH with F27S, T28A, F51I, T52G, S54T, G56A, A57T, I101V, S107G
VL: B8 VL with M94Q
B10: Ab102 (antibody, human IgG4 S228P, kappa, V domains shown)
VH: B7 VH
VL: B6 VL with V56T, V60A, S61P, V63I, Q94M, Q96A, Y99F, G101R, T102P
B11: Ab135 (antibody, human IgG4 S228P, kappa, V domains shown)
VH: B7 VH with F27S, T28A, T30S, T52N, G53S, S54N, E57S, R103T, E106R
VL: B6 VL with Q94M, G101P

biological target: mouse GDF-11 (mouse, UniProt Q9Z1W4 297-405, limits assumed); assay: plate binding assay, OD 450 nm, one antibody concentration that is not given, on Mu-GDF-11 (method not described in the text)
Sequence (Q9Z1W4 297-405 limits assumed): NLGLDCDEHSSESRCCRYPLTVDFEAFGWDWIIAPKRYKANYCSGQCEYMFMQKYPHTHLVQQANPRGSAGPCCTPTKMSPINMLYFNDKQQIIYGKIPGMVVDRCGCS

| Binder | binding result |
| --- | --- |
| B1 | no binding |
| B2 | no binding |
| B3 | no binding |
| B4 | no binding |
| B5 | no binding |

biological target: T1, murine pro-myostatin (mouse, UniProt O08689 25-376, biotinylated (in the SPR assay)); assay: plate binding assay, OD 450 nm, antibody titrated 0.0003 to 100 nM, panel 'Mu-Pro-GDF-8 Plate 3' (method not described in the text)
T1 construct: also called proGDF8 (mouse); mouse pro-myostatin

| Binder | EC50 (read off the curve) [pM] |
| --- | --- |
| B5 | ~200 |

biological target: T2, recombinant human latent myostatin (human, UniProt O14793 24-375, biotinylated (in the Octet pH assay only)); assay: cell-based or functional assay

| Binder | IC50 of inhibition of myostatin activation by mTLL-2 (functional ELISA, FIG. 1B) [pM] | IC50 of inhibition of myostatin activation by mTLL-2 (functional ELISA, FIG. 1A) [pM] |
| --- | --- | --- |
| B6 | 160 | – |
| B7 | 300 | 310 |

biological target: T3, human pro-myostatin (human, UniProt O14793 24-375, biotinylated (in the SPR assay)); assay: plate binding assay, OD 450 nm, antibody titrated 0.0003 to 100 nM, panel 'Hu-Pro-GDF-8 Plate 2' (method not described in the text)
T3 construct: Disulfide-linked homodimer; also called proGDF8 (human)

| Binder | EC50 (read off the curve) [pM] | binding result |
| --- | --- | --- |
| B1 | ~1000 | – |
| B2 | – | binds |
| B4 | – | binds |

biological target: T3, human pro-myostatin; assay: Ab KD, summary Table 11; method and antigen not stated there

| Binder | Kd [pM] |
| --- | --- |
| B6 | 41 |
| B7 | 350 |
| B8 | 229 |
| B9 | 155 |
| B10 | 329 |

biological target: T4, cyno pro-myostatin (cynomolgus monkey, Biotinylated for capture in the SPR assay (site not stated). The native form is a disulfide-linked homodimer, partly furin-cleaved; one chain is given.); assay: plate binding assay, absorbance at 450 nm, antibody titrated 100 to about 0.002 nM, panel 'Cyno Pure Pro-GDF-8' (method not described in the text)
T4 construct: also called proGDF8 (cynomolgus); cynomolgus monkey pro-myostatin

| Binder | EC50 (read off the curve) [pM] |
| --- | --- |
| B11 | ~300 |

biological target: T2, recombinant human latent myostatin; assay: cell-based or functional assay; remark: another data set of the same source

| Binder | IC50 (nM) Latent + mTLL2 [nM] |
| --- | --- |
| B5 | 0.202 |
| B6 | 0.161 |
| B8 | 0.25 |
| B11 | 0.154 |
| B10 | 0.162 |

biological target: T3, human pro-myostatin; assay: cell-based or functional assay

| Binder | IC50 (nM) Pro + Furin [nM] |
| --- | --- |
| B8 | 0.356 |
| B10 | 0.211 |

biological target: T2, recombinant human latent myostatin; assay: BLI Octet Red384, biotin human latent myostatin on streptavidin tips
Description: Binding was performed at pH 7.4 and dissociation at pH 5.5 in an Octet Red384@assay. Streptavidin biosensors were baselined in 1x kinetics buffer (KB) (Sartorius) for one minute, then loaded with 100 nM biotinylated human latent myostatin for five minutes, followed by another baseline step of one minute in 1x KB. Binding of test antibodies was performed for five minutes and then dissociation was performed in PBS at either pH 7.4 or pH 5.5 for five minutes. Analysis was performed using a partial fit, in which full dissociation was projected. Kd at pH 5.5 was divided by Kd at pH 7.4 to calculate pH sensitivity.

| Binder | fold difference in off-rate (Kd at pH 5.5 / Kd at pH 7.4) [fold] |
| --- | --- |
| B6 | 17.5 |
| B7 | 10.6 |
| B8 | 0.8 |
| B9 | 0.9 |
| B10 | 9.3 |

biological target: human GDF-11 (human, UniProt O95390 299-407, limits assumed); assay: plate binding assay, OD 450 nm, one antibody concentration that is not given, on Hu-GDF-11 (method not described in the text)
Sequence (O95390 299-407 limits assumed): as the sequence (Q9Z1W4 297-405 limits assumed) above

| Binder | binding result |
| --- | --- |
| B1 | no binding |
| B2 | no binding |
| B3 | no binding |
| B4 | no binding |
| B5 | no binding |

biological target: T4, cyno pro-myostatin; assay: SPR Biacore 8K, biotin-antigen captured

| Binder | Kd [pM] | koff [s⁻¹] | kon [M⁻¹ s⁻¹] |
| --- | --- | --- | --- |
| B6 | 38.3 | 0.000109 | 2.86e+06 |
| B8 | 44 | 0.000233 | 5.26e+06 |
| B10 | 49 | 0.000335 | 6.8e+06 |

biological target: T3, human pro-myostatin; assay: SPR Biacore 8K, biotin-antigen captured

| Binder | Kd [pM] | koff [s⁻¹] | kon [M⁻¹ s⁻¹] |
| --- | --- | --- | --- |
| B6 | 41 | 0.000116 | 2.84e+06 |
| B8 | 51 | 0.000247 | 4.89e+06 |
| B10 | 58 | 0.000376 | 6.49e+06 |

biological target: T1, murine pro-myostatin; assay: SPR Biacore 8K, biotin-antigen captured

| Binder | Kd [pM] | koff [s⁻¹] | kon [M⁻¹ s⁻¹] |
| --- | --- | --- | --- |
| B5 | 125 | 0.000411 | 3.29e+06 |
| B6 | 54 | 0.000162 | 3.01e+06 |
| B8 | 46 | 0.000276 | 5.99e+06 |
| B10 | 82 | 0.0005 | 6.11e+06 |

biological target: T1, murine pro-myostatin; assay: plate binding assay, OD 450 nm, antibody titrated 0.0003 to 100 nM, panel 'Mu-Pro-GDF-8 Plate 2' (method not described in the text)

| Binder | EC50 (read off the curve) [pM] | binding result |
| --- | --- | --- |
| B1 | ~1000 | – |
| B2 | – | binds |
| B3 | – | binds |
| B4 | – | binds |

biological target: T2, recombinant human latent myostatin; assay: cell-based or functional assay; remark: another data set of the same source

| Binder | mTLL2 IC50 [pM] |
| --- | --- |
| B6 | 161 |
| B7 | 330 |
| B8 | 250 |
| B9 | 208 |
| B10 | 346 |
